Test results from patent US12072338B2, “Pharmaceutical peptides for the treatment of inflammatory diseases” (PROTAGONISTS LTD., priority 2007, dated 2024).

What was measured:
MCP-4 = target: T1, MCP-4 (Homo sapiens, UniProt Q99616); assay: Micro-array analysis of chemokine binding peptides: MCP-4
T1 construct: purchased 300-24
Experimental: (§1) (1) Printing: Chemokine (CK) solution (in water) was serially diluted with Print Reagent (GenTel BioSurfaces USA) to final concentrations of 50 μg and 25 μg/ml. BSA/BSA-Biotin control solutions (in water) were diluted with Print Reagent to 100 μg/ml. Amplified stock of M13 phage control (M13KEgIII Cloning Vector, New England Biolabs, Cat.No.E8101S) was stored in Tris Buffered Saline (TBS; pH7.5, 4° C.) and diluted with Print Reagent to the working titre (10^8 pfu/μl). An automated spotting robot (16 pin print tool, 0.4 mm head; BioRobotics, UK) was used to print the CK/BSA control/M13 control, 5 repeats per sample (CK 25 μg/ml and 50 μg/ml; BSA 100 μg/ml; M13 20 μl), on PATH Protein Microarray Slides (GenTel, Prod.No. 2-1005/-1025) at […], and 50-70% relative humidity. Printed micro-array slides were stored at Room Temperature (RT) or 4° C. for at least 24 h before use.
(§2) (2) Blocking: Block Buffer (500 μl/partition; PATHblock, GenTel, Prod.No. 2-1014) was applied to the slide for 1 hour at room temp (RT). After removal of Block Buffer, the slide was air dried for 25 minutes;
(§3) (3) Phage Presented Peptide Binding: Amplified recombinant phage stock was stored in TBS and diluted with Wash Buffer to working titer (10^7 pfu/μl). Recombinant phage suspension (300 μl) was applied per partition and incubated at RT for 1 hour with gentle agitation.
(§4) (4) First Washing: The slides were washed twice with Wash Buffer 300 μl/partition).
(§5) (5) Primary Antibody (Ab) Labeling: The slides were incubated with the Primary Ab (1 mg/ml diluted ×2500 (Wash Reagent), 300 μl; Mouse Anti-M13 monoclonal Ab; Amersham Biosciences, UK; Product Code 27-9420-01) for 45 minutes at RT.
(§6) (6) Second Washing: The slides were washed twice with Wash Buffer (300 μl/partition).
(§7) (7) Secondary Ab Labeling: The slides were incubated with Secondary Ab (1.5 mg/ml diluted ×5000 (Wash Reagent), 300 μl; Cy3-conjugated AffiniPure Goat Anti-Mouse IgG; Jackson ImmunoReserch Labs, USA; Product Code 115-165-062).
(§8) (8) Third Washing: The slides were washed twice with Wash Buffer (300 μl/partition).
(§9) (9) Rinse: the slides were rinsed twice with Rinse Buffer (PATHrinse, GenTel, Prod.No. 2-1018) then dried well.
(§10) (10) Scanning: The peptide-bound, labeled slide was scanned (Laser Intensity 80%, Gain 80%, Resolution 10 μm) with a ScanArray Life Scanner (Packard BioChip Technologies, USA).
(§11) (11) Analysis: Quantitative analysis of micro-array was performed by the SpotReader program of Niles Scientific (USA) and presented as Relative Fluorescence (RF) as a function of CK concentration. Micro-array readout (Cy3 fluorescence) was quantified to determine the relative binding affinities of a CBP for the CKs and by inference, the specificity of the CBP for binding to a CK.

MCP-1 = target: T2, MCP-1 (Homo sapiens, UniProt P13500); assay: Micro-array analysis of chemokine binding peptides: MCP-1
T2 construct: purchased 300-04
Experimental: as §1, §2, §3, §4, §5, §6, §7, §8, §9, §10, §11

Eotaxin 3 = target: T3, Eotaxin 3 (Homo sapiens, UniProt Q9Y258); assay: Micro-array analysis of chemokine binding peptides: Eotaxin 3
T3 construct: purchased 300-48
T3 sequence (Q9Y258 24-94): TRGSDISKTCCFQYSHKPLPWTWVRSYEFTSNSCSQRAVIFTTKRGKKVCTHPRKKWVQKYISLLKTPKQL
Experimental: as §1, §2, §3, §4, §5, §6, §7, §8, §9, §10, §11

I-TAC = target: T4, I-TAC (Homo sapiens, UniProt O14625); assay: Micro-array analysis of chemokine binding peptides: I-TAC; settings: limit = start of the upper 75% of that peptide's response range
T4 construct: purchased 300-46
T4 sequence (O14625 22-94): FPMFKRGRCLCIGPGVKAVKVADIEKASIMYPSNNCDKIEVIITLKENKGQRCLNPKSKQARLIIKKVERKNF
Experimental: as §1, §2, §3, §4, §5, §6, §7, §8, §9, §10, §11

GRO-β = target: T5, GRO-β (Homo sapiens, UniProt P19875); assay: Micro-array analysis of chemokine binding peptides: GRO-β
T5 construct: purchased 300-39
T5 sequence (P19875 35-107): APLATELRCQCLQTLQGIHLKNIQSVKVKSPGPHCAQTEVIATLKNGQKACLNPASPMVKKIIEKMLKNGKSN
Experimental: as §1, §2, §3, §4, §5, §6, §7, §8, §9, §10, §11

IL-8 = assay: Micro-array analysis of chemokine binding peptides: IL-8
Experimental: as §1, §2, §3, §4, §5, §6, §7, §8, §9, §10, §11

Fractalkine = target: T6, Fractalkine (Homo sapiens, UniProt P78423); assay: Micro-array analysis of chemokine binding peptides: Fractalkine
T6 construct: purchased 300-31
T6 sequence (P78423 25-100 limits assumed): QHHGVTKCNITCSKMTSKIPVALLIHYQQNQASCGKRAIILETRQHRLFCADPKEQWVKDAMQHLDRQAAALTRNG
Experimental: as §1, §2, §3, §4, §5, §6, §7, §8, §9, §10, §11

Mig = target: T7, Mig (Homo sapiens, UniProt Q07325); assay: Micro-array analysis of chemokine binding peptides: Mig; settings: limit = start of the upper 75% of that peptide's response range
T7 construct: purchased 300-26
T7 sequence (Q07325 23-125): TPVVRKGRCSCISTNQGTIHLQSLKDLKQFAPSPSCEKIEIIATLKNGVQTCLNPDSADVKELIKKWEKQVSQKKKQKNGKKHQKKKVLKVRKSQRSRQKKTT
Experimental: as §1, §2, §3, §4, §5, §6, §7, §8, §9, §10, §11

Eotaxin 2 = target: T8, Eotaxin 2 (Homo sapiens, UniProt O00175); assay: Micro-array analysis of chemokine binding peptides: Eotaxin 2
T8 construct: purchased 300-33
T8 sequence (O00175 27-119): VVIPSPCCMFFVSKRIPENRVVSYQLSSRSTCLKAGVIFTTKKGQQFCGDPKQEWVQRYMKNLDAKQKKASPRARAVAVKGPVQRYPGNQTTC
Experimental: as §1, §2, §3, §4, §5, §6, §7, §8, §9, §10, §11

RANTES = target: T9, RANTES (Homo sapiens, UniProt P13501); assay: Micro-array analysis of chemokine binding peptides: RANTES
T9 construct: purchased 300-06
T9 sequence (P13501 24-91): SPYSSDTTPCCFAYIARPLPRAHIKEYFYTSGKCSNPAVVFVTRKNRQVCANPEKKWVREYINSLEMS
Experimental: as §1, §2, §3, §4, §5, §6, §7, §8, §9, §10, §11

MCP-2 = target: T10, MCP-2 (Homo sapiens, UniProt P80075); assay: Micro-array analysis of chemokine binding peptides: MCP-2
T10 construct: purchased 300-15
T10 sequence (P80075 24-99): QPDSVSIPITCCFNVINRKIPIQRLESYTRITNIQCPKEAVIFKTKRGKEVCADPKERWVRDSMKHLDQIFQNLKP
Experimental: as §1, §2, §3, §4, §5, §6, §7, §8, §9, §10, §11

BCA-1 = target: T11, BCA-1 (Homo sapiens, UniProt O43927); assay: Micro-array analysis of chemokine binding peptides: BCA-1
T11 construct: purchased 300-47
T11 sequence (O43927 23-109): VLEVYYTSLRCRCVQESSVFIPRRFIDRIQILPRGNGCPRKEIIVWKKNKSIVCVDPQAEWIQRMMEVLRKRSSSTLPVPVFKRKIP
Experimental: as §1, §2, §3, §4, §5, §6, §7, §8, §9, §10, §11

Exodus-2 = target: T12, Exodus-2 (Homo sapiens, UniProt O00585); assay: Micro-array analysis of chemokine binding peptides: Exodus-2
T12 construct: purchased 300-35
T12 sequence (O00585 24-134): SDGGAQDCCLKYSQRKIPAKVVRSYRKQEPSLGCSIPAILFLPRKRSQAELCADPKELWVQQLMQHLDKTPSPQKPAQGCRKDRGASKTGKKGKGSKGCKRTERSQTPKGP
Experimental: as §1, §2, §3, §4, §5, §6, §7, §8, §9, §10, §11

Lymphotactin = target: T13, Lymphotactin (Homo sapiens, UniProt P47992); assay: Micro-array analysis of chemokine binding peptides: Lymphotactin
T13 construct: purchased 300-20
T13 sequence (P47992 22-114): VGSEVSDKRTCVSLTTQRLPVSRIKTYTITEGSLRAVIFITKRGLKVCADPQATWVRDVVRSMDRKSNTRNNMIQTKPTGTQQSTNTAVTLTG
Experimental: as §1, §2, §3, §4, §5, §6, §7, §8, §9, §10, §11

Eotaxin = target: T14, Eotaxin (Homo sapiens, UniProt P51671); assay: Micro-array analysis of chemokine binding peptides: Eotaxin
T14 construct: purchased 300-21
Experimental: as §1, §2, §3, §4, §5, §6, §7, §8, §9, §10, §11

TECK = target: T15, TECK (Homo sapiens, UniProt O15444); assay: Micro-array analysis of chemokine binding peptides: TECK
T15 construct: purchased 300-45
T15 sequence (O15444 24-150): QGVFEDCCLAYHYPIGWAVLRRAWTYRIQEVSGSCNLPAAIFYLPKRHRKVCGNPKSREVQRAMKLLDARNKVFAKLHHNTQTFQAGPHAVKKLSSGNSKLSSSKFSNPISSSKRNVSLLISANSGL
Experimental: as §1, §2, §3, §4, §5, §6, §7, §8, §9, §10, §11

SDF1-β = target: T16, SDF1-β (Homo sapiens, UniProt P48061); assay: Micro-array analysis of chemokine binding peptides: SDF1-β
T16 construct: purchased 300-28b
Experimental: as §1, §2, §3, §4, §5, §6, §7, §8, §9, §10, §11

SDF1-α = target: T17, SDF1-α (Homo sapiens, UniProt P48061); assay: Micro-array analysis of chemokine binding peptides: SDF1-α
T17 construct: purchased 300-28a
Experimental: as §1, §2, §3, §4, §5, §6, §7, §8, §9, §10, §11

IP-10 = target: T18, IP-10 (Homo sapiens, UniProt P02778); assay: Micro-array analysis of chemokine binding peptides: IP-10; settings: limit = start of the upper 75% of that peptide's response range
T18 construct: purchased 300-12
T18 sequence (P02778 22-98): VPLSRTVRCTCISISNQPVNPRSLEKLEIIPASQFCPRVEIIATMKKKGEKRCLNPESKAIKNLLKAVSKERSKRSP
Experimental: as §1, §2, §3, §4, §5, §6, §7, §8, §9, §10, §11

C-TAC = target: T19, C-TAC (Homo sapiens, UniProt Q9Y4X3); assay: Micro-array analysis of chemokine binding peptides: C-TAC
T19 construct: purchased 300-54
T19 sequence (Q9Y4X3 25-112): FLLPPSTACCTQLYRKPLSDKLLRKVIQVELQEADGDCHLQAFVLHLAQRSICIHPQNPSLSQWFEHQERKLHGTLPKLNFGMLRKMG
Experimental: as §1, §2, §3, §4
(5) Primary Antibody (Ab) Labeling: The slides were incubated with the Primary Ab (1 mg/ml diluted ×2500 (Wash Reagent), 300 μl; Mouse Anti-M13 monoclonal Ab; Amersham Biosciences, UK; Product Code 27-9420-01) for 45 minutes at RT. […]
as §11

Chain of IL-8 (P10145 28-99 limits assumed): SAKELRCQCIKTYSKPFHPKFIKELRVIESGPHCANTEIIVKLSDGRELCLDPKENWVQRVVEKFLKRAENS
T17 sequence (P48061 22-89 limits assumed): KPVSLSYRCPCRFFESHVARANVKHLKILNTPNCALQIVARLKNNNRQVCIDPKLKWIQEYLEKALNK
T1 sequence (Q99616 17-98): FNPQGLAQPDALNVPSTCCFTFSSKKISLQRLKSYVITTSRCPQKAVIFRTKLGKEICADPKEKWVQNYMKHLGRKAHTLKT
T14 sequence (P51671 24-97): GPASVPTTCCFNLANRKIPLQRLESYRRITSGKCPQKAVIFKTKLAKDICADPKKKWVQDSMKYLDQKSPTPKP
T16 sequence (P48061 22-93): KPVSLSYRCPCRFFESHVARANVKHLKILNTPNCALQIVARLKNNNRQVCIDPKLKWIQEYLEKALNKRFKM
T2 sequence (P13500 24-99): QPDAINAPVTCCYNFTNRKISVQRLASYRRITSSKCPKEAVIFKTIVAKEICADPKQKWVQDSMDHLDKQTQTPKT

With SYYDDVGL [Ph-p27] the “binding to MCP-4, stated in words” value (MCP-4) was “bound”, the “binding to MCP-1, stated in words” value (MCP-1) was “bound” and the “binding to Eotaxin 3, stated in words” value (Eotaxin 3) was “bound”. For the same substance, the “binding to I-TAC with relatively high affinity (Relative Fluorescence Units)” value (I-TAC) was > 15,000 RFU, the “binding to GRO-β, stated in words” value (GRO-β) was “bound” and the “binding to IL-8, stated in words” value (IL-8) was “bound”. For the same substance, the “binding to Fractalkine, stated in words” value (Fractalkine) was “bound”, the “binding to Mig with relatively high affinity (Relative Fluorescence Units)” value (Mig) was > 15,000 RFU and the “binding to Eotaxin 2, stated in words” value (Eotaxin 2) was “bound”. For the same substance, the “binding to RANTES, stated in words” value (RANTES) was “bound”, the “binding to MCP-2, stated in words” value (MCP-2) was “bound” and the “binding to BCA-1, stated in words” value (BCA-1) was “bound”. For the same substance, the “binding to Exodus-2, stated in words” value (Exodus-2) was “bound”, the “binding to Lymphotactin, stated in words” value (Lymphotactin) was “bound” and the “binding to Eotaxin, stated in words” value (Eotaxin) was “bound”. For the same substance, the “binding to TECK, stated in words” value (TECK) was “bound”.

For “NAMCK (listed as Homo sapiens) [Ph-p8.11]”, the “binding to Eotaxin 3 with relatively high affinity (Relative Fluorescence Units)” value (Eotaxin 3; limit = start of the upper 75% of that peptide's response range) was > 10,000 RFU, the “binding to I-TAC with relatively high affinity (Relative Fluorescence Units)” value (I-TAC) was > 10,000 RFU and the “binding to SDF1-β, stated in words” value (SDF1-β) was “bound”. The “binding to SDF1-α, stated in words” value (SDF1-α) was “bound”, the “binding to IP-10 with relatively high affinity (Relative Fluorescence Units)” value (IP-10) was > 10,000 RFU and the “binding to C-TAC, stated in words” value (C-TAC) was “bound”. For the same substance, the “binding to BCA-1, stated in words” value (BCA-1) was “bound”, the “binding to Exodus-2, stated in words” value (Exodus-2) was “bound” and the “binding to TECK, stated in words” value (TECK) was “bound”.
